Laboratory results: patent US20100004182A1 (MARUHA, published 2010)

Experiments:
[1] = target: xanthine oxidase (XO) of cow's milk (from Wako Pure Chemical) (cow, UniProt P80457 2-1332); assay: cell-based or functional assay
[2] = target: xanthine oxidase (XO) from butter milk (from Wako Pure Chemical) (UniProt P80457 2-1332); assay: cell-based or functional assay
Chain of xanthine oxidase (XO) from butter milk (from Wako Pure Chemical) (P80457 2-1332 limits assumed): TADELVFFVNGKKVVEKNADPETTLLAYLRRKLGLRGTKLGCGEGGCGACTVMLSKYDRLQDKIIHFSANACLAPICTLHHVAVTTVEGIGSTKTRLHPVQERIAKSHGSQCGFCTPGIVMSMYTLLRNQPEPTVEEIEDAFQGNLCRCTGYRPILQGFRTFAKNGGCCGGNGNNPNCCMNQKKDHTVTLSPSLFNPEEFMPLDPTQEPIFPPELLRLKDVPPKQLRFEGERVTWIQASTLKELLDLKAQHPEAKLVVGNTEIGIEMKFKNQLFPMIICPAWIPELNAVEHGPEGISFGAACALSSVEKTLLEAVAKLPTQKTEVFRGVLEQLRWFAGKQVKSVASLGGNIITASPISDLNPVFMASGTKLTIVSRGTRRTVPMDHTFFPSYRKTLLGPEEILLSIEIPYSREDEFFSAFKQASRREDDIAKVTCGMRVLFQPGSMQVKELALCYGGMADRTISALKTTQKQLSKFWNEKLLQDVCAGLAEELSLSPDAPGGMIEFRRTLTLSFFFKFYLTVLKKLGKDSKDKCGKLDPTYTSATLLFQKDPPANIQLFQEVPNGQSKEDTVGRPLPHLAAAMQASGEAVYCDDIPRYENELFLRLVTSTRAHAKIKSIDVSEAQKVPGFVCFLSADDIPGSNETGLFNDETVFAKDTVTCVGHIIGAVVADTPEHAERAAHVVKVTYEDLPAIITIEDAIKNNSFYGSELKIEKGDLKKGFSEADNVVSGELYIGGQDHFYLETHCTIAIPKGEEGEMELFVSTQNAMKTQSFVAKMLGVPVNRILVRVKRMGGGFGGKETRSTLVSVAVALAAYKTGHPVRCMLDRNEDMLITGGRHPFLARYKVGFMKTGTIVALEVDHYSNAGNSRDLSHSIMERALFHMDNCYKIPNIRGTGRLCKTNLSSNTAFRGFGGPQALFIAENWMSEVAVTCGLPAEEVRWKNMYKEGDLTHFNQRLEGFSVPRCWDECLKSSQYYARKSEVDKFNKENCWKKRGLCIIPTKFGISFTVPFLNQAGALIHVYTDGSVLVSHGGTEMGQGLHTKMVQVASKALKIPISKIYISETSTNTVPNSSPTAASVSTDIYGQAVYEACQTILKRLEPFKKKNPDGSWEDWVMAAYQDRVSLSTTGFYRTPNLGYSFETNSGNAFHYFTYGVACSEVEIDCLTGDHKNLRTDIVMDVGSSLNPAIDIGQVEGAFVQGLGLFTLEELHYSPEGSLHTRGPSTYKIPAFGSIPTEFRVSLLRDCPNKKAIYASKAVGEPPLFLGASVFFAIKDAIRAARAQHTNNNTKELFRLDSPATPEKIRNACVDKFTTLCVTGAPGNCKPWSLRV

Chain of xanthine oxidase (XO) of cow's milk (from Wako Pure Chemical) (P80457 2-1332 limits assumed): as above

Binder | 50% inhibitory concentration (IC50) of xanthine oxidase activity (uric acid produced from xanthine, OD at 292 nm) [1] | 50% inhibitory concentration (IC50) of xanthine oxidase activity (uric acid produced from xanthine, OD at 292 nm) [2]
YLDN [peptide YLDN] | 1200 µM | 
DN [peptide DN] | 500 µM | 
YINY [polypeptide having SEQ ID No. 2 (YINY)] |  | 3.7 mM
LDNY [peptide LDNY] | 750 µM | 
LD [peptide LD] | 1700 µM | 
